Measured values reported in paper doi:10.1101/2020.10.01.322081.
Where “and” joins values, the source holds several entries; their conditions need not be identical. Equal entries are not always repeated. Where two headings read alike, the source gives them in different places.

How the values were obtained:
[1] = molecular target: HIV-1 Gag polyprotein in the immature Gag lattice of purified virus particles (HIV-1); assay: cryo-EM structure
[2] = molecular target: HIV-1 Gag polyprotein in the immature Gag lattice of purified virus particles (HIV-1); assay: cryo-EM structure; remark: listed apart in the source

“HIV-1 Gag polyprotein in the immature Gag lattice of purified virus particles (natural protein)” was tested, and the stoichiometry N [1] was 2 and the stoichiometry N [2] was 3 and 5.
